Experimental findings from patent publication US20220220215A1 (CRESCENDO BIOLOGICS, published 2022) are described below.

In experiment [1] the target is human CD40 (R&D Systems cat no. CDO-H5253) (human, UniProt P25942 21-193, limits assumed). The experiment can be described thus: ELISA, plate-coated human CD40; legend: No binding (-). Here is the method: (§1) Specificity of binding for CD137 over the tumour necrosis factor receptor family members OX40, GITR (Glucocorticoid-induced TNFR-related), CD40 and HVEM was determined using an ELISA assay. Nunc Maxisorp plates were coated with 1 ug/ml human CD137-Fc recombinant protein (Acro Biosystems 41B-H5258), human GITR-Fc (R&D Systems cat no. 689-GR) human OX40-Fc (R&D Systems cat no. 3388-OX), human CD40 (R&D Systems cat no. CDO-H5253), human HVEM (R&D Systems cat no. HVM-H5258) in PBS overnight at 4° C. then washed twice with PBS. Non-specific protein interactions were blocked by incubation with 1% (w/v) skimmed milk powder (Marvel®) in PBS/0.1% Tween-20 for 1 hour at room temperature. Plates were washed twice with PBS then VH or antibody control (1 ug/ml) added for 1 hour at room temperature. Following three washes with PBS/0.1% Tween-20 a 1:1000 dilution of anti His-HRP (VH detection) or anti mouse-HRP (positive control mouse monoclonal antibody detection) was added in 1% Marvel/PBS/0.1% Tween-20. The detection antibodies were allowed to bind for 1 hour at room temperature then the plates were washed twice in PBS/0.1% Tween-20 and once in PBS. The ELISA was developed using TMB substrate and the reaction was stopped by the addition of 50 ul 0.5M H₂SO₄ solution. The absorbance at 450 nm was measured using the BMG Pherastar.
A general note: In an ELISA, binding on a coated surface is turned into a signal by an enzyme label.

Experiment [2] has as its target T1, Rhesus CD137-Fc tagged protein (rhesus, UniProt H9Z8K9 24-186).
T1 construct: extracellular domain; The Octet paragraph gives no catalogue number; also called rhCD137-Fc
The experiment can be described thus: BLI (Octet RED384), CD137-Fc on Protein G sensor, 1:1 model. Here is the method: Binding kinetics of purified monovalent VH molecules were measured on a ForteBio Octet RED 384 instrument. Human and Rhesus CD137-Fc tagged protein was diluted to 5 μg/ml in kinetics buffer (0.05% Tween, 1×PBS) and coupled to Protein G biosensors (ForteBio cat no. 18-5082) via the Fc tag. VH were serially diluted (typically 1:2 dilution series starting with 200 nM, VH at the highest concentration) and binding to the CD137-Fc-coupled Protein G biosensors measured. Binding kinetics were determined from the (blank subtracted) sensor gram trace using 1:1 binding models and ForteBio Octet Data Analysis 9.0 software. Example kinetic and binding affinity data obtained is shown Table 18 (monovalent VH).

For experiment [3], the target named is T2, human CD137 expressed on CHO cells (human, UniProt Q07011 18-255).
T2 construct: also called CHO huCD137; CHO human CD137 cells
Kind of experiment: FMAT/Mirrorball on CHO huCD137 cells. In short, it runs like this: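 His-tagged VH molecules bound to CHO cells expressing human PD-1 or human CD137, with CHO parent cells as control, in PBS pH 7.4, 0.1% BSA, 0.05% sodium azide. Read by FMAT on Mirrorball (ex 488/640 nm); binding taken as FL2 median fluorescence intensity of FL5-gated events.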

For experiment [4], the target named is T3, human GITR-Fc (R&D Systems cat no. 689-GR) (human, UniProt Q9Y5U5 26-161).
T3 construct: also called Glucocorticoid-induced TNFR-related
T3 sequence (looked up): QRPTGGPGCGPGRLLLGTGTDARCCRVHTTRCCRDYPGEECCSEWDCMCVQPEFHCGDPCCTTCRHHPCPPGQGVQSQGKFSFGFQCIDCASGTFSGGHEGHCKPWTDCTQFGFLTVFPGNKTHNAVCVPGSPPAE
The experiment can be described thus: ELISA, plate-coated human GITR-Fc; legend: No binding (-). Here is the method:
as §1

The target in experiment [5] is T4, human OX40-Fc (R&D Systems cat no. 3388-OX) (human, UniProt P43489 29-216, limits assumed).
T4 sequence (looked up): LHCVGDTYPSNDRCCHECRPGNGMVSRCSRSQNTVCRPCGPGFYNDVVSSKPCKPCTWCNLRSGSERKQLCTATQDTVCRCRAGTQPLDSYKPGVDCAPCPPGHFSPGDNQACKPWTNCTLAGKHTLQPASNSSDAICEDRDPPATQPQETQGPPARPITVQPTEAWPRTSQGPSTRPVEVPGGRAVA
The experiment can be described thus: ELISA, plate-coated human OX40-Fc; legend: No binding (-). Here is the method:
as §1

Experiment [6] addresses T5, human HVEM (R&D Systems cat no. HVM-H5258) (human, UniProt Q92956 39-202, limits assumed).
T5 sequence (looked up): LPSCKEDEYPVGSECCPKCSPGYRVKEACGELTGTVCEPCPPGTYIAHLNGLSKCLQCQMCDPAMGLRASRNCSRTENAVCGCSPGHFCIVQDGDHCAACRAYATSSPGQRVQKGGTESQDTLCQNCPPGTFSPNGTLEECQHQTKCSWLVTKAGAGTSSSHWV
Kind of experiment: ELISA, plate-coated human HVEM; legend: No binding (-). Here is the method: as §1

The target of experiment [7] is T6, human HVEM (R&D Systems cat no. HVM-H5258) (human, UniProt Q92956 39-202, limits assumed).
T6 construct: Bought protein
T6 sequence (looked up): T5 sequence (looked up)
Kind of experiment: ELISA, plate coated with 1 ug/ml recombinant protein, anti His-HRP detection. Here is the method: as §1

The target in experiment [8] is T7, human OX40-Fc (R&D Systems cat no. 3388-OX) (human, UniProt P43489 29-216).
T7 construct: Bought protein
T7 sequence (looked up): T4 sequence (looked up)
The description is as above. Here is the method: as §1

In experiment [9] the target is T8, human CD40 (R&D Systems cat no. CDO-H5253) (human, UniProt P25942 21-193, limits assumed).
T8 construct: Bought protein
The description is as above. Here is the method: as §1

Experiment [10] addresses T9, human GITR-Fc (R&D Systems cat no. 689-GR) (human, UniProt Q9Y5U5 26-161).
T9 construct: Bought protein; also called Glucocorticoid-induced TNFR-related
T9 sequence (looked up): T3 sequence (looked up)
The description is as above. Here is the method:
as §1

Substitutions are numbered along the chain they refer to.

B1: 003BB172-E01 (VHH)
VHH: EVQLVESGGGLVQPGGSLRLSCAASGFTFSNYGMHWVRQAPGKRLEWVAVISNDGNTKTYADSVKGRFTISRDNSKNMLYLQMTSLRTEDTAVYYCAQDETTTVTASYYFDYWGQGTLVTVSS
notes: also called 003BB1172-E01
For B1, the binding result in experiment [1], in experiment [4], in experiment [5] and in experiment [6] was “no binding (tested: 1 ug/ml)” throughout. Also, the affinity in [2], expressed as Kd, was 27.5 nM. The koff (as a rule, the first-order rate constant of dissociation) in experiment [2] worked out at 0.00131 s⁻¹. Further, the kon (as a rule, the rate constant with which the complex forms) in [2] came to 47800 M⁻¹ s⁻¹. Besides, a half-maximal response in experiment [3] (EC50) required 1.73 nM.

B2: 003BB172-E01 (VHH)
VH: B1 VHH
notes: Human VH single domain antibody (Humabody), monovalent, His-tagged in the assays; also called 003BB1172-E01; not shown: C-terminal 6xHIS tag
Consider B2, for which the binding result in experiment [7], in experiment [8], in experiment [9] and in experiment [10] was “no binding (tested: 1 ug/ml)” in each case.

B3: 003BB172-E01-14 (VHH)
VH: B1 VHH with L11V, G16R, R44G, M78T, T84N, T88A
notes: Human VH single domain antibody, His-tagged in the assays; not shown: C-terminal 6xHIS tag
Regarding B3, the binding result in experiment [7], in [8], in [9] and in experiment [10] was “no binding (tested: 1 ug/ml)” in each case.

B4: 003BB172-E01-14 (VHH)
VHH: B1 VHH with L11V, G16R, R44G, M78T, T84N, T88A
notes: Human VH single domain antibody, monovalent
Take B4: the binding result in [1], in experiment [4], in [5] and in experiment [6] was “no binding (tested: 1 ug/ml)” each time. Further, the Kd (as a rule, the concentration at which binding is half-saturated) in experiment [2] worked out at 25.9 nM. Also, in experiment [2], the koff is 0.00159 s⁻¹. The kon in experiment [2] was 61300 M⁻¹ s⁻¹. In experiment [3], the concentration giving a half-maximal response (EC50) (commonly the concentration that produces a half-maximal response) is 1.29 nM.
